In article PMC4880913, “Solution structure and binding specificity of the p63 DNA binding domain”:
Residue numbers refer to the chain shown, from its start.

T1: p63-DBD (UniProt Q9H3D4 153-388)
T1 sequence: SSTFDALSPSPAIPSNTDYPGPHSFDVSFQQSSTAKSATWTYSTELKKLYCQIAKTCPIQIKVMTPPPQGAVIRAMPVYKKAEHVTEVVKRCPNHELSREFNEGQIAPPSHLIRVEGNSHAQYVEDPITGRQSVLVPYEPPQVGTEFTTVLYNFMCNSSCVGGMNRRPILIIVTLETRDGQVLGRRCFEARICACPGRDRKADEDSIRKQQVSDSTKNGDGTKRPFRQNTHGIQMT

T2: p63-DBD L210E (UniProt Q9H3D4 153-388, L249E)
T2 sequence: T1 sequence with L97E

B1: con2 x 5 (NMR) (dsDNA)
DNA 1: TTAGGACATGTCCATC
DNA 2: GATGGACATGTCCTAA
B2: con2 x 5 (FP) (dsDNA)
DNA 1: TTAGGACATGTCCATC
DNA 2: GATGGACATGTCCTAA

Columns and labels:
[1] = target: T1, p63-DBD; experiment: NMR titration (1H-15N TROSY); 100 mM NaCl; FP: 100 nM 5'-fluorescein dsDNA, 10 mM sodium phosphate pH 7.2, 1 mM DTT, temperature not stated; NMR: 1 mM sodium phosphate pH 7.2, 100 mM NaCl, 5 mM DTT, 303; details: protein: recombinant; tags: His-tag removed with thrombin (pET28a construct); blunt
[2] = target: T2, p63-DBD L210E; experiment: fluorescence polarization; FP: 100 nM 5'-fluorescein dsDNA, 10 mM sodium phosphate pH 7.2, 1 mM DTT, temperature not stated; NMR: 1 mM sodium phosphate pH 7.2, 100 mM NaCl, 5 mM DTT, 303; details: protein: recombinant; label: 5'-fluorescein; blunt
[3] = target: p53-DBD (UniProt P04637 94-312); experiment: as above; details: protein: recombinant; chain copies: 2; label: 5'-fluorescein; blunt
Sequence of p53-DBD (P04637 94-312): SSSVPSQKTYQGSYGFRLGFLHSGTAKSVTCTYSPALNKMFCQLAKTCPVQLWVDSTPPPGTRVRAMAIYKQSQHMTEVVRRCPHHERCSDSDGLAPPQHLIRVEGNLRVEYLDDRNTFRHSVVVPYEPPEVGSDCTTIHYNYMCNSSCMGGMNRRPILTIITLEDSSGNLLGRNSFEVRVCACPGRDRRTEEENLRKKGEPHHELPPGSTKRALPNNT

Binder	binding result [1]	binding result [2]	binding result [3]
B1	binds		
B2		binds	binds
